Reference: publication PMC6555819, “Comprehensive study of nuclear receptor DNA binding provides a revised framework for understanding receptor specificity”

B1: NRC3_wobSeed63_DR2_G10A_o1 (dsDNA)
DNA 1: GCCGAACTAAGTCACCAGGACAGTGAAGAGGTTGGAGCGATTGACAGCGTAGAATGAAGG
DNA 2: CCTTCATTCTACGCTGTCAATCGCTCCAACCTCTTCACTGTCCTGGTGACTTAGTTCGGC
B2: NRC3_wobSeed72_DR2_G17T_o1 (dsDNA)
DNA 1: GCTCGAGTAGGTTACGTGGGCATTCAGGGATGAAGAGCGATTGACAGCGTAGAATGAAGG
DNA 2: CCTTCATTCTACGCTGTCAATCGCTCTTCATCCCTGAATGCCCACGTAACCTACTCGAGC
B3: NRC3_wobSeed16_DR0_G11T_o1 (dsDNA)
DNA 1: GCCAGCCTAGTTCAGGGCCAGTATAGGAGGAACGTTGCGATTGACAGCGTAGAATGAAGG
DNA 2: CCTTCATTCTACGCTGTCAATCGCAACGTTCCTCCTATACTGGCCCTGAACTAGGCTGGC
B4: NRC3_wobSeed10_DR0_A9T_o1 (dsDNA)
DNA 1: GCATCGAATGGTCGAGGTGAGTATAGAGAAAGGGAAGCGATTGACAGCGTAGAATGAAGG
DNA 2: CCTTCATTCTACGCTGTCAATCGCTTCCCTTTCTCTATACTCACCTCGACCATTCGATGC
B5: NRC3_wobSeed93_DR3_C13G_o1 (dsDNA)
DNA 1: GCAGTCAAAGTTGATCTAGGTAACGTAAGATATGCTGCGATTGACAGCGTAGAATGAAGG
DNA 2: CCTTCATTCTACGCTGTCAATCGCAGCATATCTTACGTTACCTAGATCAACTTTGACTGC
B6: NRC3_wobSeed99_DR4_G20C_o1 (dsDNA)
DNA 1: GCTCTCGGAGGACACGAAACGTCAGAGCTCGACATCGCGATTGACAGCGTAGAATGAAGG
DNA 2: CCTTCATTCTACGCTGTCAATCGCGATGTCGAGCTCTGACGTTTCGTGTCCTCCGAGAGC
B7: NRC3_wobSeed101_DR4_C13A_o1 (dsDNA)
DNA 1: GCCCTTACGGGTAACTCCAGGTTATAGCATCGGAGTGCGATTGACAGCGTAGAATGAAGG
DNA 2: CCTTCATTCTACGCTGTCAATCGCACTCCGATGCTATAACCTGGAGTTACCCGTAAGGGC
B8: NRC3_wobSeed28_DR1_T19A_o1 (dsDNA)
DNA 1: GCCCTACTGGGCCAAAGGACATTGATTCCAATGCTCGCGATTGACAGCGTAGAATGAAGG
DNA 2: CCTTCATTCTACGCTGTCAATCGCGAGCATTGGAATCAATGTCCTTTGGCCCAGTAGGGC
B9: NRC3_wobSeed28_DR1_T19C_o1 (dsDNA)
DNA 1: GCCCTACTGGGCCAAAGGCCATTGATTCCAATGCTCGCGATTGACAGCGTAGAATGAAGG
DNA 2: CCTTCATTCTACGCTGTCAATCGCGAGCATTGGAATCAATGGCCTTTGGCCCAGTAGGGC
B10: NRC3_wobSeed36_DR1_A16C_o1 (dsDNA)
DNA 1: GCCCGACTGGGGCAACGGTTACCATACTCAGTACGAGCGATTGACAGCGTAGAATGAAGG
DNA 2: CCTTCATTCTACGCTGTCAATCGCTCGTACTGAGTATGGTAACCGTTGCCCCAGTCGGGC
B11: NRC3_wobSeed135_DR5_C13G_o1 (dsDNA)
DNA 1: GCCGAACTAGGTGATTGACAGGACAGTGAATAGTAAGCGATTGACAGCGTAGAATGAAGG
DNA 2: CCTTCATTCTACGCTGTCAATCGCTTACTATTCACTGTCCTGTCAATCACCTAGTTCGGC
B12: NRC3_wobSeed125_DR5_A14C_o1 (dsDNA)
DNA 1: GCCCTTACGGGTCCCTGACAGGTTATAGCATTTGGAGCGATTGACAGCGTAGAATGAAGG
DNA 2: CCTTCATTCTACGCTGTCAATCGCTCCAAATGCTATAACCTGTCAGGGACCCGTAAGGGC
B13: NRC3_wobSeed110_DR4_A9T_o1 (dsDNA)
DNA 1: GCTCTGCTTGGTCAACGATGGTCAGCTAATCTGCTAGCGATTGACAGCGTAGAATGAAGG
DNA 2: CCTTCATTCTACGCTGTCAATCGCTAGCAGATTAGCTGACCATCGTTGACCAAGCAGAGC

What follows are binders tested against RARg:RXRa (Homo sapiens, UniProt P13631;P19793 full;full) (assay: no ligand; PBM; 270 nM : 90 nM RXRa; PBS pH 7.4, 2% milk, 0.02% Triton X-100, 1 mM DTT, BSA, 0.4 mg/ml salmon testes DNA). Details: tags: His kept;His cleaved; copies: 1;1; label: surface-attached array probe.
Chain of RARg:RXRa (P13631 whole entry, chain 1 of 2): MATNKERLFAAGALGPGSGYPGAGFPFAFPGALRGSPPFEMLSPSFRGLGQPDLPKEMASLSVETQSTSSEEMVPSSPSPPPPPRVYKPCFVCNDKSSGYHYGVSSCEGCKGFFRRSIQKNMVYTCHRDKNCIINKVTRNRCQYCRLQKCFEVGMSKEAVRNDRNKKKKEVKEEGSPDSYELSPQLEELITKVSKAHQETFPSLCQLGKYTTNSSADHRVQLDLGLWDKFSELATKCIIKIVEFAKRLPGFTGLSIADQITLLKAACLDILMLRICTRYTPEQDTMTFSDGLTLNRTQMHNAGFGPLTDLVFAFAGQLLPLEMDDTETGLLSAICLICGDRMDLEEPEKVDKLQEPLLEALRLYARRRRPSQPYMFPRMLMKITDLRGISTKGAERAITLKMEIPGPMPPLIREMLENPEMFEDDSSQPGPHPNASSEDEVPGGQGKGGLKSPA
Chain of RARg:RXRa (P19793 whole entry, chain 2 of 2): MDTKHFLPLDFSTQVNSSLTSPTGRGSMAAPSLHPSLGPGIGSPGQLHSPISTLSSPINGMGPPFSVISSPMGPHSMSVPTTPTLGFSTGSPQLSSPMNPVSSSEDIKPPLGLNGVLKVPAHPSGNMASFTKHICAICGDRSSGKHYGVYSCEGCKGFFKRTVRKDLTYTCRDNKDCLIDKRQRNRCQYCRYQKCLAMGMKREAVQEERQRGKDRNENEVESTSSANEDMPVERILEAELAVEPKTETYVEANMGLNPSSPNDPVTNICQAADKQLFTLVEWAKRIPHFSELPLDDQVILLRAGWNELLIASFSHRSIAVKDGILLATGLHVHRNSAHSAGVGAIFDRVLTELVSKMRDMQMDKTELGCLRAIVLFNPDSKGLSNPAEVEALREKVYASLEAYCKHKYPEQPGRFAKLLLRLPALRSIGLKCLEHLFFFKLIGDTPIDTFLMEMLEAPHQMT
Summary of the method: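 Custom Agilent 4×180K protein-binding microarrays carried double-stranded probes. Their 34-nt variable regions held direct-repeat seeds, single-nucleotide variants, half-site ablations and random human genomic background sequences. Arrays were incubated 1 h with ligand-free nuclear receptor dimers in PBS pH 7.4, 2% milk, 0.02% Triton X-100, 1 mM DTT, 0.2 mg/mL BSA and 0.4 mg/ml salmon testes DNA. Antibodies against each partner (one per run) detected binding, and scanned fluorescence was regression-normalized. Binding z-scores use random background probes as reference.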
In the case of B1, the binding signal is reported as 0.3 PBM z-score against 500 random probes.
In the case of B2, the binding signal is reported as 0.43 PBM z-score against 500 random probes.
B3 was tested, and the binding signal was 0.39 PBM z-score against 500 random probes.
With B4 the binding signal was 0.4 PBM z-score against 500 random probes.
With B5 the binding signal was 0.37 PBM z-score against 500 random probes.
In the case of B6, the binding signal is reported as 0.45 PBM z-score against 500 random probes.
With B7 the binding signal was 0.35 PBM z-score against 500 random probes.
For B8, the binding signal was 0.42 PBM z-score against 500 random probes.
B9 was tested, and the binding signal was 0.32 PBM z-score against 500 random probes.
With B10 the binding signal was 0.38 PBM z-score against 500 random probes.
B11 was tested, and the binding signal was 0.33 PBM z-score against 500 random probes.
With B12 the binding signal was 0.36 PBM z-score against 500 random probes.
For B13, the binding signal was 0.29 PBM z-score against 500 random probes.
